Target: HalM2, class II lanthipeptide synthetase (wild type) (Bacillus halodurans)
Assay: native MS

## HalA2 precursor peptide (full-length)
  Kd: 2400 nM
  stoichiometry N: 1

From paper doi:10.1101/2020.09.01.277863
